In assay [1] the target is T1, recombinant soluble human amphiregulin (human, UniProt P15514 101-198, limits assumed).
T1 construct: also called AR; human AR
T1 sequence: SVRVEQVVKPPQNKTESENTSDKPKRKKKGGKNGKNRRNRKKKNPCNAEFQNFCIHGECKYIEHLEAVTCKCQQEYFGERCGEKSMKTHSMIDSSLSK
As to the kind of experiment: SPR (BIAcore 3000). The method, then: (§1) Affinities between human amphiregulin (AR) and PAR34 or HuPAR34 were analyzed using BIAcore 3000 (BLAcore, Sweden).
(§2) The BIAcore analysis may be conducted according to the following protocol. PAR34 or HuPAR34 is immobilized on the Pioneer F1 chip using standard amine coupling kit (BIAcore). Surface plasmon resonance is measured at a flow rate of 50 μl/min at 24° C. Injection of AR (association phase) occurs over 180 seconds. Dissociation is subsequently monitored over 3 hours. Kinetics of binding (ka and kd) are calculated from data acquired at five different concentrations of analyte (320 nM, 160 nM, 80 nM, 40 nM, 20 nM), using the BIAevaluation program. Double-referencing is applied to eliminate responses from reference surface and buffer only control. The binding affinity, KD, is obtained by simultaneously fitting the association and dissociation phases of the sensorgram from the analyte concentration series.
In general terms: Surface plasmon resonance follows binding to a sensor surface in real time, without labels.

The target of assay [2] is T1, recombinant soluble human amphiregulin. Kind of assay: cell-based or functional assay.
For assay [3] the target is unchanged. Kind of assay: competition ELISA against biotinylated PAR34, Exp. A. On the procedure: (§3) The affinity of HuPAR34 to human amphiregulin was analyzed by competition ELISA. MaxiSorp ELISA plates (Nalge Nunc International) were coated overnight at 4° C. with 100 μl/well of 0.5 μg/ml recombinant soluble human amphiregulin in 0.2 M sodium carbonate-bicarbonate buffer, pH 9.4, washed with Wash Buffer (PBS containing 0.1% Tween 20), and blocked for 15 min at room temperature with 200 μl/well of SuperBlock Blocking Buffer in TBS (Pierce Chemical Company). After washing with Wash Buffer, a mixture of biotinylated PAR34 (0.125 μg/ml final concentration) and competitor antibody (PAR34 or HuPAR34 starting at 75 μg/ml final concentration and serially diluted 3-fold) in 100 μl/well of ELISA buffer was added in triplicate. As a control, 100 μl/well of 75 μg/ml of humanized anti-CD33 IgG1/κ monoclonal antibody HuM195 (Co, M. S. et al., J. Immunol., 148: 1149-1154 (1992)) in ELISA buffer was used. As a no-competitor control, 100 μl/well of ELISA Buffer was used. After incubating the plates for 1 hr and washing with Wash Buffer, bound antibodies were detected using 100 μl/well of 1 μg/ml HRP-conjugated streptavidin (Pierce Chemical Company) in ELISA buffer. After incubating for 0.5 hr at room temperature and washing with Wash Buffer, color development was performed by adding 100 μl/well of ABTS substrate (KPL, Inc.). […] Absorbance was read at 415 nm. […]
(In general: In an ELISA, binding on a coated surface is turned into a signal by an enzyme label.)

Assay [4] has the same target. As to the kind of experiment: competition ELISA against biotinylated PAR34, Exp. B. On the procedure:
as §3

Assay [5] shares this target. As to the kind of experiment: competition ELISA against biotinylated PAR34, Exp. C. On the procedure: as §3
Assay [6] shares this target. Kind of assay: competition ELISA against biotinylated PAR34, Exp. D. The method, then: as §3
Assay [7] has the same target. As to the kind of experiment: SPR (BIAcore 3000), antibody immobilized, AR as analyte. On the procedure:
as §1, §2

Assay [8] has the same target. As to the kind of experiment: competition ELISA against biotinylated PAR34, average of Exp. A-D. The method, then:
as §3

For assay [9] the target is unchanged. Kind of assay: competition ELISA on coated recombinant soluble human amphiregulin, competitor against biotinylated PAR34, Exp. A. On the procedure: as §3
Assay [10] shares this target. Kind of assay: competition ELISA on coated recombinant soluble human amphiregulin, competitor against biotinylated PAR34, Exp. B. On the procedure: as §3
The target is the same in assay [11]. As to the kind of experiment: competition ELISA on coated recombinant soluble human amphiregulin, competitor against biotinylated PAR34, Exp. C. On the procedure: as §3
Assay [12] shares this target. Kind of assay: competition ELISA on coated recombinant soluble human amphiregulin, competitor against biotinylated PAR34, Exp. D. The method, then:
as §3

The target is the same in assay [13]. As to the kind of experiment: competition ELISA on plate-coated recombinant soluble human amphiregulin; competes with biotinylated PAR34. The method, then:
as §3

Assay [14] shares this target. As to the kind of experiment: competition ELISA on coated recombinant soluble human amphiregulin, competitor against biotinylated PAR34, average of Exp. A-D. On the procedure: as §3

Some results are limits rather than exact numbers.

By Kd is commonly meant the concentration at which binding is half-saturated. A word on the koff: it is a measure of how fast the partners let go of each other. By kon is commonly meant a measure of how fast the partners come together. Usually IC50 stands for the midpoint of a concentration-inhibition curve.

B1: HuPAR34 (humanized PAR34, IgG1/kappa) (antibody, V domains shown)
VH: EVQLVQSGAEVKKPGASVKISCKVSGYAFTNYNMYWVRQAPGKGLEWIGYIDPYYGDPGYSQKFKGKATLTVDKSTSTAYMELSSLRSEDTAVYYCARRGNFPYYFDYWGQGTLVTVSS
VL: DIQMTQSPSSLSASVGDRVTITCKASQDINSYLSWFQQKPGKAPKTLIYRANRLVDGVPSRFSGSGSGQDYTLTISSLQPEDFATYYCLQYDEFPYTFGGGTKVEIK
Regarding B1, in [1], the “fold difference of affinity, HuPAR34 against PAR34” value was ≤ 2 fold. Moreover, the “IC50 of inhibition of AR-mediated proliferation in 3T3 cells” value in assay [2] was 0.055 µg/mL. The “fold difference of IC50, HuPAR34 against PAR34” value in assay [3] turned out to be 2.4 fold; in [4], 1.4 fold; in [5], 1.4 fold; in assay [6], 2 fold; in [8], 1.8 fold. Further, the Kd in assay [7] was 0.53 nM. For the same molecule, in assay [7], the koff is 0.00823 s⁻¹. In assay [7], the kon stood at 1.26e+07 M⁻¹ s⁻¹. The IC50 in assay [9] was 1.95 µg/mL; in [10], 1.11 µg/mL; in assay [11], 1.76 µg/mL; in assay [12], 2.76 µg/mL; in assay [14], 1.9 µg/mL. Further, in [13], the “IC50 (read off the curve)” value is ~2 µg/mL.

B2: PAR34 (murine anti-amphiregulin monoclonal antibody) (antibody, mouse IgG2b, V domains shown)
VH: EIQLQQSGPELVKPGASVKVSCKASGYAFTNYNMYWVKQSHGKSLEWIGYIDPYYGDPGYSQKFKGKATLTVDKSSSTAYMHLNSLTSEDSAVYYCARRGNFPYYFDYWGQGTTLTVSS
VL: DIKMTQSPSSMYASLGERVTITCKASQDINSYLSWFQQKPGKSPKTLIYRANRLVDGVPSRFSGSGSGQDYSLTISSLEYEDMGIYYCLQYDEFPYTFGGGTKLEIK
Turning to B2, in assay [2], the “IC50 of inhibition of AR-mediated proliferation in 3T3 cells” value came out at 0.025 µg/mL. Further, in [7], the Kd turned out to be 0.41 nM. Moreover, the koff in assay [7] was 0.024 s⁻¹. Further, in assay [7], the kon worked out at 4.8e+07 M⁻¹ s⁻¹. In addition, the IC50 in assay [9] was 0.82 µg/mL; in [10] it was 0.78 µg/mL; in assay [11], 1.3 µg/mL; in [12], 1.39 µg/mL; in assay [14], 1.07 µg/mL. The “IC50 (read off the curve)” value in assay [13] was ~1 µg/mL.

These data come from US20040210040A1 (PDL BIOPHARMA, published 2004).
